# Molecular target: cleavage stimulation factor (CstF): CstF77-CstF50-CstF64(1-195) (human) (UniProt Q12996)
# Test: SEC
substance,measurement,value
"mammalian polyadenylation specificity factor (mPSF): CPSF160-WDR33(1-572)-CPSF30-Fip1(1-243), Q10570 1-1443; Q9C0J8 1-572; O95639-2 1-244; Q6UN15 1-243",stoichiometry N,1

# Source: article PMC7036032
